Broadly, the EC50 is the concentration that produces a half-maximal response. Lower therefore signals an effect from little substance. As usually defined, the Kd is the equilibrium constant for the complex coming apart. Low values mean higher affinity, high ones lower affinity. As usually defined, the koff is the rate constant with which the complex falls apart. A low value points to a long-lived complex. For orientation: kon means the rate constant with which the complex forms. A lower kon goes with slower complex formation. By EC50 (read off the curve) is commonly meant the concentration at which the effect is half-maximal.

Changes are numbered by the printed parent chain.

For assay [1], the target named is T1, human Claudin18.1 (CLDN18.1), full length, on cells (human, UniProt P56856 1-261).
T1 construct: HEK293-CLDN18.1 cells carry a fusion with green fluorescent protein (ZsGreen); CHO-K1-CLDN18.1 cells carry pcDNA3.1-CLDN18.1; The cell line is named under assay; also called CLDN18.1-FL; HEK293-CLDN18.1 cells
The assay can be described thus: cellular ELISA on fixed HEK293-CLDN18.1 cells, HRP-anti human IgG, OD450. On the procedure: (§1) HEK293-CLDN18.1 and HEK293-CLDN18.2 cells were resuscitated two weeks in advance, cultured with DMEM complete culture medium containing 10% fetal bovine serum at 37° C., 5% CO₂. When the cells grew to 80%-90% confluency, they were digested with 0.5 mM EDTA-PBS (Sigma) at room temperature, centrifuged at 1000 rpm for 5 minutes, the supernatant was discarded. Cells were resuspended in DMEM complete culture medium, the cell concentration was adjusted to 6×10⁵ cells/ml. Cells were plated on 96-well cell plates (Corning) pre-coated with polylysine at 2.5 μg/well, 100 μl per well, incubated at 37° C., 5% CO₂ for 24 hours, making cells evenly and completely plated on the bottom of the well. The supernatant was aspirated, and the cells were fixed with 4% paraformaldehyde at room temperature for 20 minutes, washed 3 times with 200 μl PBS, 2 minutes at each time. The well plates were blocked with 200 μl of 3% BSA-PBS at 37° C. for 1 hour. Each chimeric antibody was diluted with 3% BSA-PBS to a concentration of 6 μg/ml, and diluted in a 6-fold gradient to a total of 7 concentrations. At the same time, IMAB362-similar-hG1 diluted in the same concentration gradient as the positive control, and human IgG1, kappa isotype control antibody (hereinafter referred to as Isotype, provided by CrownBio (Taicang) Co., Ltd.) as the negative control were added to HEK293-CLDN18.2 and HEK293-CLDN18.1 cell plates, respectively. The cells were incubated at 37° C. for 1 hour, washed 5 times with PBS. Incubation with HRP-anti human IgG (Jackson) diluted 1:10000 in blocking solution was performed at 37° C. for 1 hour followed by washing 5 times with PBS. 100 μl of TMB one-component color developing solution was added, protected from light at room temperature for 5-10 minutes, terminated with 50 μl of 2M sulfuric acid, OD450 was read on the microplate reader. Data processing: the original data was put into GraphPad 5.0 software for plotting and calculation.
(In general: ELISA stands for enzyme-linked immunosorbent assay.)

Assay [2] deals with T2, human Claudin18.2 (CLDN18.2), full length, on cells (human).
T2 construct: also called CLDN18.2-FL; HEK293-CLDN18.2 cells
Briefly: cellular ELISA on fixed HEK293-CLDN18.2 cells. On the procedure:
as §1

Assay [3] deals with T2, human Claudin18.2 (CLDN18.2), full …. Briefly: FACS on CHO-K1-CLDN18.2 cells, relative Kd from Graphpad fit. On the procedure:
(§2) CHO-K1-CLDN18.2 cells and CHO-K1-CLDN18.1 cells (prepared in Example 5) were digested with gastric cancer cell digestion solution at 37° C. for 15 minutes, respectively; terminated with complete culture medium, centrifuged at 1000 rpm for 5 minutes, the supernatant was discarded; the cells were resuspended with 2% fetal bovine serum-PBS diluent, the cells were adjusted to 1×10⁶ cells/ml, 100 μl of cell suspension was added to each well of the 96-well U-shaped-bottom plate; 2% fetal bovine serum-PBS was used to dilute the humanized antibody and the control antibody to final concentrations of 10 μg/ml, 2 μg/ml, 0.4 μg/ml, 0.08 μg/ml and 0.016 μg/ml, respectively, mixed well with the cells in equal volume, incubated at 4° C. for 1 hour; centrifuged at 1000 rpm for 5 minutes, the supernatant was discarded; 200 μl Cell Stain Buffer (Biolegend) was added to each well to wash twice, centrifuged at 1000 rpm for 5 minutes at each time and the supernatant was discarded; 100 μl of PE-anti human Fc antibody (Biolegend) was added, incubated at 4° C. for 1 hour; washed with Cell Stain Buffer (Biolegend) twice, centrifuged at 1000 rpm for 5 minutes at each time and the supernatant was discarded. 300 μl Cell Stain Buffer was added to resuspend the cells, and detected by BD FACS Jazz flow cytometry analyzer. […]

Assay [4] has the same target. The assay can be described thus: FACS on CHO-K1-CLDN18.2 cells, Graphpad fit. On the procedure: as §2
Assay [5] has as its target T1, human Claudin18.1 (CLDN18.1), full …. The assay can be described thus: FACS on CHO-K1-CLDN18.1 cells. The text has this:
(§3) Human gastric cancer cells NUGC4 and stably transfected cells CHO-K1-CLDN18.1 (prepared in Example 5) were used respectively, to verify the specificity and affinity of the anti-CLDN18.2 antibodies above at the cellular level by FAGS technology. After antibody affinity maturation and screening in vitro, each antibody can bind to the CLDN18.2 target on NUGC4 cells, but not to CHO-K1-CLDN18.1 cells, as compared with the original 3CHI antibody.

The target in assay [6] is T2, human Claudin18.2 (CLDN18.2), full …. Briefly: FACS on NUGC4 cells.
Excerpt: as §3

Assay [7] has the same target. The assay can be described thus: cell-based or functional assay.
The target of assay [8] is T1, human Claudin18.1 (CLDN18.1), full …. Briefly: FACS on CHO-K1-CLDN18.1 cells, PE-anti human Fc, MFI. On the procedure: (§4) CHO-K1-CLDN18.2 cells and CHO-K1-CLDN18.1 cells (prepared in Example 5) were digested with gastric cancer cell digestion solution at 37° C. for 15 minutes, respectively; terminated with complete culture medium, centrifuged at 1000 rpm for 5 minutes, the supernatant was discarded; the cells were resuspended with 2% fetal bovine serum-PBS diluent, the cells were adjusted to 1×10⁶ cells/ml, 100 μl of cell suspension was added to each well of the 96-well U-shaped-bottom plate; 2% fetal bovine serum-PBS was used to dilute the humanized antibody and the control antibody to final concentrations of 10 μg/ml, 2 μg/ml, 0.4 μg/ml, 0.08 μg/ml and 0.016 μg/ml, respectively, mixed well with the cells in equal volume, incubated at 4° C. for 1 hour; centrifuged at 1000 rpm for 5 minutes, the supernatant was discarded; 200 μl Cell Stain Buffer (Biolegend) was added to each well to wash twice, centrifuged at 1000 rpm for 5 minutes at each time and the supernatant was discarded; 100 μl of PE-anti human Fc antibody (Biolegend) was added, incubated at 4° C. for 1 hour; washed with Cell Stain Buffer (Biolegend) twice, centrifuged at 1000 rpm for 5 minutes at each time and the supernatant was discarded. 300 μl Cell Stain Buffer was added to resuspend the cells, and detected by BD FACS Jazz flow cytometry analyzer.

The target in assay [9] is T3, antigen protein Claudin18.2-His (human, UniProt P56856-2 1-261, limits assumed).
T3 construct: also called CLDN18.2 protein
The assay can be described thus: BLI (Fortebio Octet RED96), antibody on AHC sensor, Claudin18.2-His in solution, 37 °C. On the procedure:
Next, antibodies were immobilized by the AHC sensor, and then combined with different concentrations of antigens, and determination of the affinity was performed according to the manual of Octet RED96.
For orientation: BLI is a label-free optical method that tracks binding on a fibre tip over time.

The target in assay [10] is T3, antigen protein Claudin18.2-His. The assay can be described thus: BLI (Fortebio Octet RED96), antibody on AHC sensor, CLDN18.2 protein in solution, 37 °C. On the procedure:
Another method is to verify the affinity of the humanized antibody above at the protein level. The antibody was immobilized by the AHC sensor, and combined with different concentrations of antigens, and affinity determination was performed according to the manual of Octet RED96.

The target of assay [11] is T2, human Claudin18.2 (CLDN18.2), full …. The assay can be described thus: cell-based or functional assay. The source holds these as a separate data set.
Assay [12] shares this target. Briefly: FACS on CHO-K1-CLDN18.2 cells, PE-anti human Fc, MFI. On the procedure: as §4

B1: 1CHI (antibody, V domains shown)
VH: QIQLVQSGPELKKPGETVKISCKASGYTFTNYGMNWVKQAPGKGLKWMGWINTYTGEPTYADDFKGRFAFSLETSASTAYLQINNLKNEDMATYFCARDGQLGLRFAYWGQGTLVTVSA
VL: NIMMTQSPSSLAVSAGEKVTMSCKSSQSVLYSSNQKNYLAWYQQKPGQSPKLLIYWASTRESGVPDRFTGSGSGTDFTLTISSVQAEDLAVYYCHQYLSSRTFGGGTKLEIK
notes: Human-murine chimeric antibody with the constant region of human IgG1; also called chimeric antibody of B4B10G3
B1: the binding result in assay [1] is “no binding (tested: 6000 ng/ml)”. This molecule displayed an EC50 in assay [2] of 0.55 nM.

B2: 330CHI (antibody, human IgG1, V domains shown)
VH: EVKLVESGGGLVQPGGSLKLSCAASGFGFSDYGMAWVRQAPRKGPEWVAFISNSAYSIYYADTVTGRFTISRENAKNTLYLEMSSLRSEDTAMYYCARLGRGNSFAYWGQGTLVTVSA
VL: DIVMTQSPSSLTVTAGEKVTMSCKSSQSLLNSGNQKNYLTWYQQKPGQPPKLLIYWGSTRESGVPDRFTGSGSGTDFTLTISSVQAEDLAVYYCQNELFYPLTFGAGTKLELK
notes: chimeric with the constant region of human IgG1; also called chimeric antibody 330CHI
For the molecule B2, the Kd in [3] was found to be 1.6 nM. Besides, in [4], the “Bmax (MFI)” value was 10800 MFI. In addition, the “MFI (CLDN18.1)” value in [5] amounted to 49 MFI. Also, in assay [6], the “MFI (CLDN18.2)” value turned out to be 63700 MFI. Moreover, in [7], the “in-vitro ADCC activity, Jurkat-CD16A/NF luciferase reporter, EC50” value amounted to 0.22 nM and the “in-vitro ADCC activity, Jurkat-CD16A/NF luciferase reporter, Top” value was found to be 215000. Moreover, the binding result in assay [8] is listed as “no binding”. In assay [9], this molecule registered a Kd of 0.84 nM, a koff of 0.000117 s⁻¹ and a kon of 139000 M⁻¹ s⁻¹. In assay [10], the Kd was 0.249 nM, the koff was 3.23e-05 s⁻¹ and the kon was determined as 130000 M⁻¹ s⁻¹. In [11], the “ADCC activity by luciferase labeling, EC50” value turned out to be 0.18 nM and the “ADCC activity by luciferase labeling, Top” value amounted to 64500.

B3: 3CHI (antibody, V domains shown)
VH: B2 VH with G28T, S54L, R101Y
VL: B2 VL with G57A, E97D, L98Y, F99S
notes: Human-murine chimeric antibody with the constant region of human IgG1; also called chimeric antibody of S5H3B6; original 3CHI antibody
For the molecule B3, the “MFI (CLDN18.1)” value in assay [5] came to 76 MFI. Moreover, in assay [6], the “MFI (CLDN18.2)” value was 2510 MFI. For the same molecule, in [7], the “in-vitro ADCC activity, Jurkat-CD16A/NF luciferase reporter, EC50” value was determined as 0.54 nM and the “in-vitro ADCC activity, Jurkat-CD16A/NF luciferase reporter, Top” value was determined as 212000. Also, in assay [1], the binding result is “no binding (tested: 6000 ng/ml)”. The same molecule showed an EC50 in assay [2] of 0.08 nM.

B4: 17CHI (antibody, V domains shown)
VH: EVQLQQSGPELVKPGASVKMSCKASGYTFTDYNMHWVKQSHGKSLEWIGYINPNNGGTSYNQKFKGKATLTVNKSSSTAYMELRSLTSEDSAVYYCARIYYGNSFAYWGQGTLVTVSA
VL: B2 VL with G57A, E97D, L98Y, F99S, L102F, A106S, L112I
notes: Human-murine chimeric antibody with the constant region of human IgG1; also called chimeric antibody of C58B11E11
Take B4: the “MFI (CLDN18.1)” value in assay [5] was determined as 14500 MFI. The EC50 in assay [2] is 2.44 nM.

B5: Hu330-3 (antibody, V domains shown)
VH: EVQLLESGGGLVQPGGSLRLSCAASGFGFSDYGMAWVRQAPGKGLEWVSFISNSAYSIYYADTVTGRFTISRDNSKNTLYLQMNSLRAEDTAVYYCARLGRGNSFAYWGQGTLVTVSS
VL: DIVMTQSPDSLAVSLGERATINCKSSQSLLNSGNQKNYLTWYQQKPGQPPKLLIYWGSTRESGVPDRFSGSGSGTDFTLTISSLQAEDVAVYYCQNELFYPLTFGQGTKLEIK
notes: Humanized full antibody; also called humanized antibody Hu330-3
B5: the binding result in [8] was “no binding”; in [12] it was “binds”.

B6: Hu330-5 (antibody, V domains shown)
VH: B5 VH with L5V, S75A, T78S
VL: DIVMTQSPLSLPVTLGQPASISCKSSQSLLNSGNQKNYLTWYQQRPGQSPRLLIYWGSTRESGVPDRFSGSGSGTDFTLKISRVEAEDVGVYYCQNELFYPLTFGQGTKLEIK
notes: Humanized full antibody; also called humanized antibody Hu330-5
For B6, the binding result in assay [8] is “no binding”. The “EC50 (read off the curve)” value in [12] was roughly 0.2 µg/mL.

B7: Hu330-6 (antibody, V domains shown)
VH: B5 VH
VL: B6 VL
notes: Humanized full antibody; also called humanized antibody Hu330-6
In the case of B7, in assay [8], the binding result is on record as “no binding”. For the same molecule, the “EC50 (read off the curve)” value in [12] is roughly 0.2 µg/mL.

B8: 18CHI (antibody, V domains shown)
VH: QVQLKESGPGLVAPSQSLSITCTVSGFSLTSYGVSWVRQPPGKGLEWLGVIWGDGSTNYHSALISRLSISKDNSKSQVFLKLNSLQTDDTATYYCAGGLRLWFAYWGQGTLVTVSA
VL: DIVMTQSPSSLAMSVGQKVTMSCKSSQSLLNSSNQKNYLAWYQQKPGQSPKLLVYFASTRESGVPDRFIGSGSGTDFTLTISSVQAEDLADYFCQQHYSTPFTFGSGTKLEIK
notes: Human-murine chimeric antibody with the constant region of human IgG1; also called chimeric antibody of C40B10D9
For B8, the binding result in assay [1] is on record as “no binding (tested: 6000 ng/ml)”. For the same molecule, the EC50 in [2] came to 1.75 nM.

For the origin of these results see patent publication US20220119517A1 (NANJING SANHOME PHARMACEUTICAL, published 2022).
